In patent publication US20160237160A1 (Bayer, published 2016):
Blank lines part the entries; values can stand above or below the binder they belong to.

Experiments:
[1] = target: TWEAKR (TNFRSF12A, FN14), human, on tumor cell lines (human, UniProt Q9NP84 28-129); assay: cell-based or functional assay
[2] = target: T1, TPP-599 (HUMAN-TNFRSF12Aaa28-80-hIgG1-Fc) (human); assay: ELISA, TWEAKR-Fc coated 62 ng/ml, biotin-IgG titrated; + means IC50 1 to 150 pM;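 also: biotinylated IgG binding to immobilized TWEAKR-Fc muteins, detected with Streptavidin-HRP and Amplex Red, IC50 derived from fitted dose-response curves of twofold serial dilutions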
T1 construct: dimeric; also called human TWEAKR Fc; TWEAKR-Fc
Method: To collect dose-response data, the different TWEAKR-Fc muteins were coated with a low concentration (62 ng/ml) in a 384-well Maxisorb ELISA plate and a serial 2fold dilution of biotinylated IgG starting with a concentration of 100 nM was used as soluble binding partner. Detection was done with Streptavidin-HRP and Amplex Red.
The dose-response data were fitted and IC50s determined.

[3] = target: T2, TPP-2625 (TweakR-ECD-34-68-hIgGFc-His-L65A) (human); assay: ELISA, IgG coated 1 ug/ml, HEK293 supernatant titrated
T2 construct: used as HEK293 supernatant
Method: (§1) These TWEAKR(34-68)-Fc muteins were expressed in HEK293 cells. To collect dose-response data, IgGs were coated at a concentration of 1 μg/ml in a 384-well Maxisorp ELISA plate and a serial 2fold dilution of the TWEAKR mutein containing supernatant was used as soluble binding partner. Detection was done with anti-HIS-HRP and Amplex Red.

[4] = target: T3, TPP-2624 (TweakR-ECD-34-68-hIgGFc-His-F63A) (human); assay: as above
T3 construct: used as HEK293 supernatant
Method: as §1

[5] = target: T4, TPP-2609 (TweakR-ECD-34-68-hIgGFc-His-S40A) (human); assay: as above
T4 construct: used as HEK293 supernatant
Method: as §1

[6] = target: T5, TPP-2616 (TweakR-ECD-34-68-hIgGFc-His-D51A) (human); assay: as above
T5 construct: used as HEK293 supernatant
Method: as §1

[7] = target: T6, TPP-2612 (TweakR-ECD-34-68-hIgGFc-His-S43A) (human); assay: as above
T6 construct: used as HEK293 supernatant
Method: as §1

[8] = target: T7, TPP-2619 (TweakR-ECD-34-68-hIgGFc-His-R58A) (human); assay: as above
T7 construct: used as HEK293 supernatant
Method: as §1

[9] = target: T8, TPP-2611 (TweakR-ECD-34-68-hIgGFc-His-W42A) (human); assay: as above
T8 construct: used as HEK293 supernatant; also called W42A (34-68 construct)
Method: as §1

[10] = target: T9, TPP-2607 (TweakR-ECD-34-68-hIgGFc-His-S37A) (human); assay: as above
T9 construct: used as HEK293 supernatant
Method: as §1

[11] = target: T10, TPP-2622 (TweakR-ECD-34-68-hIgGFc-His-S61A) (human); assay: as above
T10 construct: used as HEK293 supernatant
Method: as §1

[12] = target: T11, TPP-2203 (TWEAKR-ECD-34-68-hIgGFc-His) (human); assay: ELISA, TPP-2203 coated at 1 µg/ml, biotinylated IgG at 0.08 µg/ml (open bar) and 0.3 µg/ml (filled bar), Streptavidin-HRP, Amplex Red
T11 construct: dimeric; also called TWEAKR(34-68)-Fc fusion protein; truncated ectodomain 34-68
Method: Detection was done with Streptavidin-HRP and Amplex-Red substrate.
To analyze for binding, 1 μg/ml of the respective dimeric TWEAKR-Fc construct were coated and, 0.3 μg/ml and 0.08 μg/ml of biotinylated IgG were used as soluble binding partner. Detection was done with Streptavidin-HRP and Amplex-Red substrate.

[13] = target: T12, TPP-1779 (RAT-TNFRSF12Aaa28-80-hIgG1-Fc) (rat); assay: SPR, TWEAKR-Fc immobilized, IgG injected, bivalent analyte model (avidity mode);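 also: kd derived as the ratio of fitted dissociation to association rate constants, with sensorgrams corrected against a reference flow cell and a buffer blank before fitting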
T12 construct: bivalent antigen; also called rat TWEAKR Fc
Method: (§2) Sensorgrams were generated after in-line reference cell correction followed by buffer sample subtraction. The dissociation equilibrium constant (KD) was calculated based on the ratio of association (kₒₙ₁) and dissociation rated (koff1) constants, obtained by fitting sensorgrams with a bivalent analyte model using Biavaluation Software (version 4.0).

[14] = target: T13, TPP-1778 (PIG-TNFRSF12Aaa28-80-hIgG1-Fc) (pig); assay: as above
T13 construct: bivalent antigen; also called pig TWEAKR Fc
Method: as §2

[15] = target: T14, TPP-1846 (MAC-TNFRSF12Aaa28-80-hIgG1-Fc) (macaca fascicularis); assay: as above
T14 construct: bivalent antigen; also called mac fasc TWEAKR Fc
Method: as §2

[16] = target: T1, TPP-599 …; assay: as above
Method: as §2

[17] = target: T15, TPP-1777 (DOG-TNFRSF12Aaa28-80-hIgG1-Fc) (dog); assay: as above
T15 construct: bivalent antigen; also called dog TWEAKR Fc
Method: as §2

[18] = target: T16, TPP-601 (MURINE-TNFRSF12Aaa28-80-hIgG1-Fc) (murine); assay: as above
T16 construct: dimeric; also called murine TWEAKR Fc
Method: as §2

[19] = target: T17, TPP-2614 (TweakR-ECD-34-68-hIgGFc-His-D47A) (human); assay: ELISA, antibody coated at 1 µg/ml, TWEAKR variant at 250 ng/ml, anti-HIS HRP; normalized by WT; the legend of B does not name the variant, D47A by paragraph 82 and paragraph 368
T17 construct: also called D47A TWEAKR mutein
Method: (§3) Antibodies were coated (1 μg/ml), TWEAKR variant was added at 250 ng/ml, detection via anti-HIS HRP. […] Antibodies were coated (1 μg/ml), TWEAKR variant was added 250 ng/ml, detection via anti-HIS HRP.

[20] = target: T17, TPP-2614 …; assay: ELISA, IgG coated 1 ug/ml, TWEAKR variant 250 ng/ml, anti-HIS HRP (FIG. 6C)
Method: as §3

[21] = target: T18, BCMA (TNFRSF17) Fc fusion protein (Human, UniProt Q02223 1-54); assay: ELISA, Fc fusion protein coated at 1 µg/ml, TPP-2090 at 75 nM, Amplex Red;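 also: binding reported as ELISA signal intensity in Rfu against a panel of TNF receptor superfamily members presented as Fc fusion proteins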
T18 construct: extracellular domain; bought
T18 sequence (looked up): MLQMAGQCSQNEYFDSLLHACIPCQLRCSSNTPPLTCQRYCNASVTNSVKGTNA
From the text: (§4) Shown is the result of an ELISA: Y is “ELISA signal intensity [Rfu]”; X are “TNF receptor superfamily proteins tested (Fc-fusion proteins)”: 1 is “TWEAKR”; 2 is “TWEAKR”; 3 is “Apo-3”; 4 is “Trail-R1”; 5 is “Trail-R2”; 6 is “CD385”; 7 is “CD95”; 8 is “Rank”; 9 is “TNF-R1”; 10 is “TNF-R2”; 11 is “BAFF-R”; 12 is “DcR3”; 13 is “BCMA”; 14 is “TACI”; 15 is “OX40”; 16 is “CD30”; 17 is “CD27”; 18 is “CD40”; 19 is “Osteoprotegerin”; 20 is “EDAR”; 21 is “GITR”; 22 is “HVEM”; 23 is “NGF R”; 24 is “Trail R3”; 25 is “Lymphotioxin B R”; 26 is “Trail R4”; 27 is “EDA2R”; 28 is “TROY”; 29 is “RELT”; 30 is “4-1BB”.
(§5) To collect dose-response data a serial 3fold dilution of biotinylated IgG starting with a concentration of 2 μM was used as soluble binding partner. Detection was done with anti-hIgG1-HRP and Amplex Red.

[22] = target: T19, TNF-R1 (TNFRSF1A) Fc fusion protein (Human, UniProt P19438 30-211); assay: as above
T19 construct: extracellular domain; bought
T19 sequence (looked up): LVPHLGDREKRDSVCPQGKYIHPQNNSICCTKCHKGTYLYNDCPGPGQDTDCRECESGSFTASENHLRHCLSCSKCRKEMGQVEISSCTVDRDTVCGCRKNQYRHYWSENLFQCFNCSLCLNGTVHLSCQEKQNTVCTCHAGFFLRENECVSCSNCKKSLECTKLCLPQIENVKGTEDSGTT
From the text: as §4, §5

Fold induction of Caspase 3/7, 786-O cells, 100 ug/ml [1]: 1.1 fold
Fold induction of Caspase 3/7, A253 cells, 100 ug/ml [1]: 1.38 fold
Fold induction of Caspase 3/7, HT-29 cells, 100 ug/ml [1]: 1.49 fold
Fold induction of Caspase 3/7, NCI-H322 cells, 100 ug/ml [1]: 1.02 fold
Fold induction of Caspase 3/7, WiDr cells, 100 ug/ml [1]: 1.12 fold
binding result [2]: binds
binding result [3]: no binding
binding result [4]: no binding
binding result [5]: no binding
binding result [6]: no binding
binding result [7]: no binding
binding result [8]: no binding
binding result [9]: no binding
binding result [10]: no binding
binding result [11]: no binding
B1: P4A8(TPP-1324) (antibody, human IgG1, kappa, V domains shown)
VH: QVQLVQSGAEVKKPGASVKVSCKGSGYTFTDYGMHWVRQAPGQGLEWMGVISTYNGYTNYNQKFKGRVTMTVDKSTSTAYMELRSLRSDDTAVYYCARAYYGNLYYAMDYWGQGTLVTVSS
VL: DIVLTQSPASLAVSLGQRATISCRASKSVSTSSYSYMHWYQQKPGQPPKLLIKYASNLESGVPARFSGSGSGTDFSLNIHPMEEDDTAMYFCQHSRELPFTFGGGTKLEIKR
notes: Human IgG1; variable domains from WO2009/140177 with constant region added

binding result [12]: binds
Kd [13]: 4.3 nM
Kd [14]: 9.9 nM
Kd [15]: 21.2 nM
Kd [16]: 15 nM
Kd [17]: 6 nM
Kd [18]: 4.1 nM
% binding normalized by wt binding signal [20]: < 5%
binding result [21]: no binding (tested: 75 nM)
binding result [22]: no binding (tested: 75 nM)
B2: TPP-2090 (antibody, human IgG1, kappa, V domains shown)
VH: EVQLLESGGGLVQPGGSLRLSCAASGFTFSPYPMIWVRQAPGKGLEWVSYISPSGGSTHYADSVKGRFTISRDNSKNTLYLQMNSLRAEDTAVYYCARGGDTYFDYFDYWGQGTLVTVSS
VL: DIQMTQSPSSLSASVGDRVTITCRASQSISGYLNWYQQKPGKAPKLLIYQASSLQSGVPSRFSGSGSGTDFTLTISSLQPEDFATYYCQQSYTSPFITFGQGTKVEIKR
notes: Human IgG1
binding result [19]: no binding (tested: 250 ng/ml (TWEAKR variant))
